The target in one experiment is HLA-A*02:19. Kind of experiment: IEDB peptide-MHC binding, purified MHC/direct/fluorescence; filed as Kd, often an IC50 or EC50 that approximates it; ≥ and ≤ were set here for values at or beyond the usual limits of such assays.
The target of a further experiment is HLA-A*02:11. The experiment is described as above.
A further experiment deals with HLA-A*29:02. The experiment is described as above.
The target of the next experiment is HLA-A*02:16. The description is as above.
A further experiment has as its target HLA-A*02:12. The experiment is described as above.
A further experiment deals with HLA-A*24:03. Described as above.
The target in the next experiment is HLA-A*68:02. Described as above.
Another experiment addresses HLA-B*40:01. Described as above.
In a further experiment the target is HLA-A*02:03. The description is as above.
The next experiment concerns the target HLA-A*03:01. The experiment is described as above.
Another experiment deals with HLA-B*51:01. Kind of experiment: IEDB peptide-MHC binding, purified MHC/competitive/fluorescence; filed as Kd, often an IC50 or EC50 that approximates it; ≥ and ≤ were set here for values at or beyond the usual limits of such assays. The settings on record: source organism: Zaire ebolavirus.
A further experiment addresses HLA-B*27:03. Described as above.
In a further experiment the target is HLA-B*39:01. The description is as above.
The target of a further experiment is HLA-B*57:01. The description is as above. As to conditions: source organism: Zaire ebolavirus.
The target of experiment [1] is HLA-B*15:01. The experiment is described as above.
The target of a further experiment is HLA-B*15:17. Described as above. As to conditions: source organism: Zaire ebolavirus.
In experiment [2] the target is HLA-A*26:01. The description is as above.
The target of experiment [3] is HLA-A*02:01. The description is as above.
Experiment [4] deals with HLA-A*69:01. The experiment is described as above.
The target in another experiment is HLA-B*18:01. The description is as above.
For a further experiment, the target named is HLA-B*46:01. Described as above.
A further experiment deals with HLA-B*44:02. The experiment in a line: IEDB peptide-MHC binding, purified MHC/direct/fluorescence; filed as Kd, often an IC50 or EC50 that approximates it; ≥ and ≤ were set here for values at or beyond the usual limits of such assays.
The target in a further experiment is HLA-A*30:01. The experiment is described as above.
In a further experiment the target is HLA-B*58:01. The description is as above.
Another experiment addresses HLA-B*08:01. The experiment is described as above.
For another experiment, the target named is HLA-B*07:02. The experiment is described as above.
The target of another experiment is HLA-A*01:01. The description is as above.
For experiment [5], the target named is HLA-B*15:01. The experiment is described as above.
The target in the next experiment is HLA-A*31:01. Described as above.
In another experiment the target is HLA-A*11:01. The description is as above.
In another experiment the target is HLA-B*27:05. The experiment is described as above.
Experiment [6] concerns the target HLA-A*26:01. Described as above.
Experiment [7] has as its target HLA-A*02:01. The description is as above.
Experiment [8] has as its target HLA-A*69:01. The description is as above.
[9] abbreviates: source organism: Zaire ebolavirus.
Where [10] appears, read: source organism: Campylobacter jejuni RM1221.
Where [11] appears, read: source organism: Campylobacter jejuni.
Setting [12] is: source organism: Escherichia coli O157:H7.
Where [13] appears, read: source organism: Coxiella burnetii.
[14] abbreviates: source organism: Brucella melitensis.
Where [15] appears, read: source organism: Orthohantavirus andesense.

Regarding AENCYNLEI, the dissociation constant (Kd) with HLA-A*02:19 (setting [9]), with HLA-A*02:11 (setting [9]), with HLA-A*29:02 (setting [9]), with HLA-A*02:16 (setting [9]), with HLA-A*02:12 (setting [9]) and with HLA-A*24:03 (setting [9]) was no less than 20 µM in each case. Moreover, the Kd in the experiment with HLA-A*68:02 (setting [9]) is no less than 20 µM; with HLA-B*40:01 (setting [9]), 0.0822 µM; with HLA-A*02:03 (setting [9]), no less than 20 µM; in the experiment with HLA-A*03:01 (setting [9]) it was no less than 20 µM; with HLA-B*51:01, no less than 20 µM; with HLA-B*27:03 (setting [9]) it was no less than 20 µM. The equilibrium dissociation constant (Kd) with HLA-B*39:01 (setting [9]), with HLA-B*57:01, in the experiment with HLA-B*15:01 [1] (setting [9]), with HLA-B*15:17, with HLA-A*26:01 [2] (setting [9]) and with HLA-A*02:01 [3] (setting [9]) was no less than 20 µM each time. The Kd in the experiment with HLA-A*69:01 [4] (setting [9]), with HLA-B*18:01 (setting [9]) and with HLA-B*46:01 (setting [9]) was no less than 20 µM throughout.
As for ALIVAIWDK, the equilibrium dissociation constant (Kd) is no less than 20 µM with HLA-B*44:02 (setting [10]); 8.54 µM in the experiment with HLA-A*30:01 (setting [11]); no less than 20 µM with HLA-B*58:01 (setting [10]); no less than 20 µM with HLA-A*24:03 (setting [10]); no less than 20 µM with HLA-B*08:01 (setting [10]); no less than 20 µM with HLA-B*07:02 (setting [10]). Also, the dissociation constant (Kd) with HLA-A*01:01 (setting [10]) is no less than 20 µM; with HLA-B*15:01 [5] (setting [10]) it was no less than 20 µM; with HLA-A*31:01 (setting [11]), 11.8 µM; with HLA-A*11:01 (setting [11]), 0.553 µM; with HLA-B*27:05 (setting [10]), no less than 20 µM; with HLA-B*40:01 (setting [10]), no less than 20 µM. Moreover, the Kd is no less than 20 µM in the experiment with HLA-A*26:01 [6] (setting [10]), no less than 20 µM with HLA-A*02:01 [7] (setting [11]), 2.7 µM with HLA-A*03:01 (setting [11]) and no less than 20 µM in the experiment with HLA-A*69:01 [8] (setting [10]).
GITGGHIPK: the dissociation constant Kd was no less than 20 µM with HLA-B*44:02 (setting [12]); 0.0722 µM in the experiment with HLA-A*30:01 (setting [12]); no less than 20 µM with HLA-B*58:01 (setting [12]); no less than 20 µM with HLA-A*24:03 (setting [12]); no less than 20 µM in the experiment with HLA-B*08:01 (setting [12]); no less than 20 µM with HLA-B*07:02 (setting [12]). In addition, the dissociation constant Kd with HLA-A*01:01 (setting [12]) was no less than 20 µM; in the experiment with HLA-B*15:01 [5] (setting [12]) it was no less than 20 µM; with HLA-A*31:01 (setting [12]), no less than 20 µM; in the experiment with HLA-A*11:01 (setting [12]), 0.101 µM; with HLA-B*27:05 (setting [12]), no less than 20 µM; with HLA-B*40:01 (setting [12]), no less than 20 µM. The dissociation constant (Kd) is no less than 20 µM with HLA-A*26:01 [6] (setting [12]), no less than 20 µM in the experiment with HLA-A*02:01 [7] (setting [12]), 0.392 µM with HLA-A*03:01 (setting [12]) and no less than 20 µM in the experiment with HLA-A*69:01 [8] (setting [12]).
For KGPDKLQVY, the Kd with HLA-B*44:02 (setting [13]) is no less than 20 µM; with HLA-A*30:01 (setting [13]) it was 12.3 µM; in the experiment with HLA-B*58:01 (setting [13]), no less than 20 µM; in the experiment with HLA-B*08:01 (setting [13]) it was no less than 20 µM; with HLA-B*07:02 (setting [13]), no less than 20 µM; in the experiment with HLA-A*01:01 (setting [13]), no less than 20 µM. In addition, the dissociation constant Kd was 2.42 µM in the experiment with HLA-B*15:01 [5] (setting [13]); no less than 20 µM with HLA-A*31:01 (setting [13]); no less than 20 µM in the experiment with HLA-A*11:01 (setting [13]); no less than 20 µM in the experiment with HLA-B*27:05 (setting [13]); no less than 20 µM in the experiment with HLA-B*40:01 (setting [13]); no less than 20 µM in the experiment with HLA-A*26:01 [6] (setting [13]). Further, the Kd with HLA-A*02:01 [7] (setting [13]), in the experiment with HLA-A*03:01 (setting [13]) and with HLA-A*69:01 [8] (setting [13]) was no less than 20 µM in each case.
Regarding RLWNGRRCR, the equilibrium dissociation constant (Kd) was no less than 20 µM in the experiment with HLA-B*44:02 (setting [14]); 1.75 µM in the experiment with HLA-A*30:01 (setting [14]); no less than 20 µM with HLA-B*58:01 (setting [14]); no less than 20 µM in the experiment with HLA-A*24:03 (setting [14]); no less than 20 µM with HLA-B*08:01 (setting [14]); no less than 20 µM with HLA-B*07:02 (setting [14]). Moreover, the dissociation constant Kd with HLA-A*01:01 (setting [14]) is no less than 20 µM; with HLA-B*15:01 [5] (setting [14]), no less than 20 µM; with HLA-A*31:01 (setting [14]), 0.0615 µM; in the experiment with HLA-A*11:01 (setting [14]), 11.4 µM; in the experiment with HLA-B*27:05 (setting [14]), 2.04 µM; with HLA-B*40:01 (setting [14]), no less than 20 µM. Further, the equilibrium dissociation constant (Kd) with HLA-A*26:01 [6] (setting [14]) was no less than 20 µM; in the experiment with HLA-A*02:01 [7] (setting [14]) it was no less than 20 µM; in the experiment with HLA-A*03:01 (setting [14]), 0.634 µM; in the experiment with HLA-A*69:01 [8] (setting [14]), no less than 20 µM.
Take VSANVKGNW: the Kd with HLA-A*02:19 (setting [15]) was no less than 20 µM; in the experiment with HLA-A*02:11 (setting [15]) it was no less than 20 µM; in the experiment with HLA-A*29:02 (setting [15]) it was no less than 20 µM; with HLA-A*02:16 (setting [15]), no less than 20 µM; with HLA-B*58:01 (setting [15]) it was 0.0023 µM; with HLA-A*02:12 (setting [15]) it was no less than 20 µM. In addition, the Kd in the experiment with HLA-A*24:03 (setting [15]), in the experiment with HLA-A*68:02 (setting [15]), with HLA-A*02:03 (setting [15]), with HLA-A*03:01 (setting [15]), with HLA-B*27:03 (setting [15]) and with HLA-B*39:01 (setting [15]) was no less than 20 µM throughout. In addition, the Kd with HLA-B*15:01 [1] (setting [15]), with HLA-A*26:01 [2] (setting [15]), in the experiment with HLA-A*02:01 [3] (setting [15]), in the experiment with HLA-A*69:01 [4] (setting [15]), with HLA-B*18:01 (setting [15]) and with HLA-B*46:01 (setting [15]) was no less than 20 µM in each case.

These data come from the Immune Epitope Database (IEDB).
